1 molecule from US20230040275A1, “SECRETABLE PROTEIN INDUCED IMMUNE TOLERIZATION AND TREATMENT OF AUTOIMMUNE, ALLERGIC AND OTHER DISEASES AND DISORDERS” (SPARK THERAPEUTICS, INC., priority 2019, published 2023) can be followed below.

For this assay, the system named is Huh7 cells. As to the kind of experiment: Plasma membrane retention of full-length MOG in transformed Huh7 cells. The following applies: 72 hr post-transfection, leaders WT, Sp7, HC7s. It is filed as cell-based. On the procedure:
To examine the secretability of the full-length MOG protein the plasma membrane and cell lysate and media of transformed Huh7 cells were examined for MOG expression. Huh7 cells were grown to ˜80% confluency and transformed using plasmids expressing full-length myelin oligodendrocyte glycoprotein (MOG) with various leader sequences: Wildtype (WT; native MOG leader), human chymotrypsinogen B2 signal peptide (“Sp7”; 18 amino acid signal peptide of NCBI reference sequence NP_001020371), or a combination of WT with the heavy chain 7 sequence (HC7s; Haryadi et al., PloS ONE 10(2): e0116878. doi:10.1371/journal.pone.0116878 (2015)). Cells and media were harvested 72 hr post-transfection. Plasma membrane fractions from cells were enriched as described (Nishiumi et al., Biosci. Biotechnol. Biochem. 71 (9), 2343-2346, (2007)) Briefly, cells were harvested in modified Buffer A (50 mM Tris, 0.5 mM DTT) with protease inhibitors (cOmplete™ tablets, Roche) and 0.1% Triton X100. The cells were sheared by passage through a 25-gauge needle; 3 times. The homogenate was centrifuged for 10 min at 1000×g at 4° C. The supernatant was harvested as post-plasma membrane (PPM) fraction. […] Standard WES parameters were used, and samples were analyzed on Compass Software (ProteinSimple).

B1: full-length MOG: full-length myelin oligodendrocyte glycoprotein expressed from plasmids with WT, Sp7 or HC7s leader sequences (protein, UniProt Q16653 1-247, looked up)
chain: MASLSRPSLPSCLCSFLLLLLLQVSSSYAGQFRVIGPRHPIRALVGDEVELPCRISPGKNATGMEVGWYRPPFSRVVHLYRNGKDQDGDQAPEYRGRTELLKDAIGEGKVTLRIRNVRFSDEGGFTCFFRDHSYQEEAAMELKVEDPFYWVSPGVLVLLAVLPVLLLQITVGLIFLCLQYRLRGKLRAEIENLHRTFDPHFLRVPCWKITLFVIVPVLGPLVALIICYNWLHRRLAGQFLEELRNPF
modifications: full-length
B1: the “localisation of full-length MOG (plasma membrane vs cell lysate and media)” value is reported as “retained in the plasma membrane”. The “localisation of full-length MOG (plasma membrane vs cell lysate and media)” value (listed as Mature MOG) is “enriched in the plasma membrane”.
